Measured values from patent US7919262B2, “14-3-3 proteins for diagnosis of Parkinson's disease” (The UAB Research Foundation, priority 2007, dated 2011).

B1: 14-3-3ζ: 14-3-3 polypeptide ζ isoform, overexpressed from expression vector (protein, UniProt P63104 1-245, looked up)
14-3-3 protein zeta/delta: MDKNELVQKAKLAEQAERYDDMAACMKSVTEQGAELSNEERNLLSVAYKNVVGARRSSWRVVSSIEQKTEGAEKKQQMAREYREKIETELRDICNDVLSLLEKFLIPNASQAESKVFYLKMKGDYYRYLAEVAAGDDKKGIVDQSQQAYQEAFEISKKEMQPTHPIRLGLALNFSVFYYEILNSPEKACSLAKTAFDEAIAELDTLSEESYKDSTLIMQLLRDNLTLWTSDTQGDEAEAGEGGEN
B2: 14-3-3ε: 14-3-3 polypeptide ε isoform, overexpressed from expression vector (protein, UniProt P62258 1-255, looked up)
14-3-3 protein epsilon: MDDREDLVYQAKLAEQAERYDEMVESMKKVAGMDVELTVEERNLLSVAYKNVIGARRASWRIISSIEQKEENKGGEDKLKMIREYRQMVETELKLICCDILDVLDKHLIPAANTGESKVFYYKMKGDYHRYLAEFATGNDRKEAAENSLVAYKAASDIAMTELPPTHPIRLGLALNFSVFYYEILNSPDRACRLAKAAFDDAIAELDTLSEESYKDSTLIMQLLRDNLTLWTSDMQGDGEEQNKEALQDVEDENQ
B3: 14-3-3θ: 14-3-3 polypeptide θ isoform, overexpressed from V5/His-tagged pcDNA3.1 vector (or as transgene in C. elegans) (protein, UniProt P27348 1-245, looked up)
14-3-3 protein theta: MEKTELIQKAKLAEQAERYDDMATCMKAVTEQGAELSNEERNLLSVAYKNVVGGRRSAWRVISSIEQKTDTSDKKLQLIKDYREKVESELRSICTTVLELLDKYLIANATNPESKVFYLKMKGDYFRYLAEVACGDDRKQTIDNSQGAYQEAFDISKKEMQPTHPIRLGLALNFSVFYYEILNNPELACTLAKTAFDEAIAELDTLNEDSYKDSTLIMQLLRDNLTLWTSDSAGEECDAAEGAEN
modifications: V5/His tag

Each molecule was assayed on M17 cells (assay: MPP+ toxicity in stably transfected cell lines, LDH release). Conditions: stable overexpression; MPP+ 0-10 mM; 24 hours.
Format: cell-based, human
Procedure: Cell lines stably-transfected with either a 14-3-3 isoform or empty vector were treated with varying concentrations of MPP+ for 24 hours. Cell death was assayed by LDH release into the culture media. LDH release into media was normalized to total LDH release for each well. Lines overexpressing 14-3-3θ (FIG. 9A), 14-3-3ε (FIG. 9B), or 14-3-3γ (FIG. 9C) were more resistant to MPP+ in a dose-dependent manner compared to control stable cells. […] Results reflect two to three independent experiments with at least two replicates per experiment. **p<0.01, ***p<0.001 (Bonferroni's multiple comparison test).
The 14-3-3 expressing M17 clones were also tested for resistance to the neurotoxin 1-methyl-4-phenylpyridinium ion (MPP+), which is a metalbolite of 1-methyl-4-phenyl-1,2,3,6-tetrahydropyridine (MPTP). M17 cells expressing the 14-3-3 isoforms were prepared as described. M17 cells were treated with MPP+ (0-10 mM) for 24 hours (FIGS. 9A-G). Cell death was assayed by LDH release into the culture media as described above.
Primers against each of the human 14-3-3 isoforms were designed using Primer3. Primers against 14-3-3β (NM_018753) were 5′ […] 3′ (forward; SEQ ID NO. 9) and 5′ […] 3′ (reverse; SEQ ID NO. 10). Primers against 14-3-3ε (NM_009536) were 5′ […] 3′ (forward; SEQ ID NO. 11) and 5′ […] 3′ (reverse; SEQ ID NO. 12). Primers against 14-3-3γ (NM_018871) were 5′ […] 3′ (forward; SEQ ID NO. 13) and 5′ […] 3′ (reverse; SEQ ID NO. 14). Primers against 14-3-3η (NM_011738) were 5′ […] 3′ (forward; SEQ ID NO. 15) and 5′ […] 3′ (reverse; SEQ ID NO. 16). Primers against 14-3-3θ (NM_011739) were 5′ […] 3′ (forward; SEQ ID NO. 17) and 5′ […] 3′ (reverse; SEQ ID NO. 18). Primers against 14-3-3σ (NM_018754) were 5′ […] 3′ (forward; SEQ ID NO. 19) and 5′ […] 3′ (reverse; SEQ ID NO. 20). Primers against 14-3-3ζ(NM_011740) were 5′ […] 3′ (forward; SEQ ID NO. 21) and 5′ […] 3′ (reverse; SEQ ID NO. 22). Primers against GAPDH were 5′ tggtgaagcaggeatctga 3′ (forward; SEQ ID NO. 23) and 5′ […] 3′ (reverse; SEQ ID NO. 24) and were used to normalize PCR results. • α-syn aggregation assay H4 cells were transfected with synphilin, α-syn/green fluorescent protein (synT), and either empty vector control or a 14-3-3 isoform using Superfect transfection reagent (Qiagen). 24 hours after transfection, cells were fixed with 4% paraformaldehyde and immunostained with a monoclonal antibody against α-syn (BD Transduction) and a secondary Alexa 488-conjugated goat anti-mouse antibody (Molecular Probes). All cells stained for α-syn were scored as positive or negative for α-syn aggregates, with the rater blind to experimental condition. • α-syn toxicity assay H4 cells were transfected with α-syn and either empty vector control or a 14-3-3 isoform using Superfect transfection reagent (Qiagen). 24 hours after transfection, toxicity was measured by the amount of adenylate kinase released into the media using the ToxiLight™ kit (Cambrex). • Creation of stable cell lines Each 14-3-3 isoform was subcloned into the mammalian expression vector mcDNA3.1/V5-His (Invitrogen). BE(2)-M17 cells were transfected with each isoform or empty vector using Superfect, and stably-transfected cells were selected for in the presence of G418. […] Protein concentrations of supernatants were determined by the bicinchoninic acid assay (BCA; Pierce, Rockford, Ill.). […]
For “14-3-3γ: 14-3-3 polypeptide γ isoform, overexpressed from expression vector”, the “protection against MPP+ toxicity (LDH release)” value (from here on “protection against MPP+ toxicity”) was “reduced toxicity”. In the case of B1, the “protection against MPP+ toxicity” value is reported as “did not show any significant protection”. B2 was tested, and the “protection against MPP+ toxicity” value was “reduced toxicity”. In the case of B3, the “protection against MPP+ toxicity” value is reported as “reduced toxicity”.
